Laboratory results as given in article PMC9334538 (2022).

Biological target: WT SARS-CoV-2 RBD (amino acids 321 to 591 of spike) (SARS-CoV-2, UniProt P0DTC2 321-591)
Assay: SPR

B1: aRBD-5-Fc (Fc fusion)
chain: QVQLVESGGGLVQPGGTLRLSCAASGFTLDYYAIGWFRQAPGKEREGVSCISGSGGITNYTDSVKGRFTISRDNAKNTVYLQMNSLKPEDTAVYYCAPVSHTVVAGCAFEAWTDFGSWGQGTQVTVSS
koff: 0.0143 s⁻¹
